Measured values: the supplement of paper PMC12042874
± gives the uncertainty stated by the source.

assay: amyloid nucleation score (Sup35N fusion, yeast selection) (log enrichment); library NNK1; higher = more nucleation; inactive = no reads after selection
Outline: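 The nucleation score, computed with DiMSum, is the log enrichment of output over input reads, centred on the mode score of non-aggregating sequences. Sequences with under 100 input reads were dropped. Reads were generated by Illumina sequencing of plasmid inserts from psi-negative yeast with Sup35N fused to peptides of 20 random codons, induced with 100 μM copper sulfate for 24 hours and grown 7 days at 30°C on medium lacking adenine and uracil.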

Row | Substance | amyloid nucleation score
1 | CASRFMCGPTINKWVR | -1.02 ± 1.1
2 | FLLLCRSFFSARTILRCTMV | 0.631 ± 0.89
3 | DIVPSTPELFI | -0.505 ± 0.59
4 | CLIVKRIFFYLNYHKKVELL | -0.573 ± 1.4
5 | LRRGMQHAFADSENFVGSHV | -0.168 ± 1.3
6 | TSWRAWVGAVKRSAFFYTYY | 0.444 ± 1.4
7 | AECLDPMNAVTVCRGSWL | 0.101 ± 0.35
8 | CWCSANALMCRGKLSAWNRH | inactive
9 | RGRSIDVPRE | -0.004 ± 0.53
10 | WYHFVSGAVPHGSNEPKEFN | -1 ± 0.9
11 | GRREMEGTHIKKICRGGRTR | 1.53 ± 0.73
12 | LSLDRNVATHKGSYPEWDNF | 0.752 ± 0.23
13 | LFKYYNWVGTLVTYIMIYVW | -1.62 ± 0.62
14 | CAKGCCD | -0.344 ± 0.72
15 | YTEIMGL | -0.046 ± 0.31
16 | KSDRIKLYNKCWELAVLMKK | -0.555 ± 1.1
17 | LYIYTKFRFVMYVSWCVSDS | 0.012 ± 0.62
18 | ADRKSFLQSCGLCE | -0.661 ± 0.32
19 | NVTDAI | inactive
20 | DYGKSCRIALYGYYDRWCTG | 0.797 ± 0.48
21 | HRITSFVYYFGLSSEFYIYP | 0.009 ± 1.1
22 | LMRRGGCVYVGFFWELVCFQ | -0.524 ± 0.83
23 | PVYMGIAALYGPGCLTLLTV | 2.07 ± 0.3
24 | EIMFDWVMMEKKCRILHKKT | inactive
25 | VHTVYLLVDTR | 0.289 ± 1.2

Row | Substance | amyloid nucleation score
26 | CVYSFNWLRLLGALSG | 2.18 ± 0.24
27 | VRDSVTLFPK | -0.277 ± 0.77
28 | YWFFSIMSSYSVNTQM | 1.64 ± 0.8
29 | NIFIFTVSHKPNY | 7.926 ± 0.057
30 | PEDFHNLFLKINGYLSYAFV | -1.54 ± 1.1
31 | LFGPDLSTRNPGDVSVQSAA | 0 ± 0.39
32 | DLSSESHVFLCVAL | -0.711 ± 2.1
33 | DSSLRDKYVTKNVFIFSMSG | 4.71 ± 0.063
34 | NHALYDIWLIALSSRLYCQN | 0.342 ± 0.4
35 | SLHSDVRHRRVVYVVREIAY | -0.096 ± 1.1
36 | CGIING | -1.08 ± 1.7
37 | HHCHSSGL | 0.981 ± 0.93
38 | GSCLIRASFQVHMILSSGHL | inactive
39 | VCWYWVGILRMMICACTSPS | 0.362 ± 0.43
40 | YLLQSAIFGAGVHT | 0.672 ± 0.39
41 | TSSVEVNPERVITISGTVS | -0.018 ± 0.17
42 | IPWPRTPSSSGMHAL | 4.81 ± 0.074
43 | RIFYFPSLRRKGDYNWRMVV | 0.27 ± 0.39
44 | MDWLEYHMSFCSHV | 0.07 ± 0.26
45 | IAPMSRRFEGMACSFTDEEA | inactive
46 | CPVFQHDDKDWLGVFKWLRN | -1.32 ± 2.4
47 | ISGNRSKVWNDGWIRPRYLC | 0.679 ± 0.84
48 | NRIKWVKRFSIPFLTWYEDW | 0.499 ± 0.53
49 | LAVEWWTNVVYVFYAYFANR | 0.001 ± 0.25
50 | CWVLNFVFGDCNLSCWGN | 7.185 ± 0.051

Row | Substance | amyloid nucleation score
51 | VAYSVI | 1.02 ± 0.66
52 | KWCISKSFFVYPTMMR | 0.437 ± 0.44
53 | VYVKYP | -0.125 ± 0.77
54 | WRQYIDRNYVSCSASMLAWE | 0.583 ± 0.43
55 | NLMFSNGSNRSGF | 0.142 ± 0.38
56 | SWVSAVIHRYGV | 1.31 ± 0.15
57 | NKWLRCARGTVHWYAAIVGH | -0.942 ± 1.1
58 | IDWKLKLMFMCFESKSLVNW | -0.655 ± 0.32
59 | RPKCWWVIGCIKRKSMSIGR | 2.17 ± 0.081
60 | FWEYSSRNPQSHYTVLRSKV | -0.509 ± 0.32
61 | MENAGTSVIPRRYIWTPKPV | 0.923 ± 0.76
62 | QIIKENFRRSY | 2.45 ± 0.55
63 | YSRSVGYRRYFI | inactive
64 | LIVNLKICAVHVGYHWGWRA | 0.653 ± 0.29
65 | ASLAIGFSIKSHYVMCRVYP | 0.42 ± 0.35
66 | LDLINRMGNVGMLIMDCYKI | 0.159 ± 0.43
67 | FACMEGSLVM | inactive
68 | CYWSFKSAVAGPLSSESEGS | 4.4 ± 0.095
69 | TTDPVWFSAI | 0.346 ± 0.4
70 | ITCYGKCYPSRDKL | 1.27 ± 0.56
71 | YSMLCLKYL | inactive
72 | AYEGKGITGHLIFSWKSKSL | 1.55 ± 0.13
73 | YVAISHGQTPSLYL | -0.827 ± 1.5
74 | VDLTLPASAVGNELCAREVG | 0.155 ± 0.34
75 | RLVCKFRMRKSNRGVRNMLC | 0.797 ± 0.53

Row | Substance | amyloid nucleation score
76 | NLLTMDIERTGECIDFWVD | 0.008 ± 0.38
77 | KTVVSELSVVNEVVA | -0.359 ± 0.31
78 | IFLPYI | -0.383 ± 1.4
79 | FIFIDMRRSWDISVKDTRST | 6.802 ± 0.066
80 | SCLWSSCCVV | 0.171 ± 0.44
81 | VLFYQF | -0.382 ± 0.69
82 | RVLRIVEAVVVSSCGFVDLR | 1.69 ± 0.25
83 | FNFEFLTCL | inactive
84 | MNKFNCRIMDDSDSALFSIA | 0.486 ± 0.4
85 | NLKVESPGNGSWICTLEWVW | 6.645 ± 0.054
86 | NYNTIWMMKWFNGRWFLSAV | -0.293 ± 0.94
87 | SLDVICPGVYLEMLGRESIL | -0.416 ± 0.84
88 | YVFVWMRYTSFWVMNTFYSS | 0.193 ± 0.46
89 | EVIRLDSIFLETGVRSCFQY | 0.041 ± 0.73
90 | NLSGRSLSRLIDLFNRFTC | 0.919 ± 0.29
91 | LSEDVHRTVVRYWMKSRR | 1.74 ± 0.31
92 | LVFSRFLGSVLVNEPSEATR | 0.203 ± 1.5
93 | LQYGNWPGGVFVWWFIKMHH | -0.02 ± 0.71
94 | SISNTLLGLEEWLPNYVNVF | 0.871 ± 0.49
95 | VHIPHDCISAIVFRSSAAIS | -0.331 ± 0.49
96 | CTRHMHTSRKFQALLSWCVT | -0.316 ± 0.47
97 | RNLQILQDYKPSSNQCGRKE | -0.885 ± 0.71
98 | VSVGVILCSVRNKVNRGMDD | inactive
99 | GCRMWFAWQVGVILMVDMFI | 0.307 ± 0.81
100 | AYIDKMCTPYNKGRLLMHWY | 1.97 ± 0.48

Row | Substance | amyloid nucleation score
101 | LLYIILFRNYILYKLWIRFA | 0.572 ± 0.3
102 | TWVVTHPPTM | 0.359 ± 0.55
103 | VGVMFG | -0.06 ± 0.69
104 | YVLWNRASIAPYIQHGLRVL | 1.19 ± 0.19
105 | YSHFEQYMDNFNIMNYDYRD | -0.879 ± 1.2
106 | DHASIGMALYCFCYQVSFIL | 0.391 ± 0.42
107 | WEWSTGFRCC | 0.566 ± 0.48
108 | RRCLSIPLVCFRDKNMNMGF | -0.246 ± 0.46
109 | LCFLTSIQCTALLDHQLVPR | 6.17 ± 0.079
110 | CTYNLTCLWHMELNSSMIMR | 5.37 ± 0.061
111 | RWESKRRRRGRYGFWSVSVR | 0.129 ± 0.35
112 | IRSLKNPF | 0.275 ± 1.2
113 | YGSDGCKRRKGSTALAIVTY | 0.423 ± 0.41
114 | KCQIGSMVLSYMVELPGDRD | -0.171 ± 0.36
115 | KYLSYTVVCGLTNDSWHLMH | -0.196 ± 0.46
116 | HYTLIGIY | inactive
117 | DTLEVTFGYYDCYGMYKTIT | -1.18 ± 1.7
118 | VGELFCGWSRRERYPVWSLV | 0.255 ± 1.4
119 | YYPNPMQPW | -0.526 ± 0.47
120 | DMEKVV | 0.408 ± 0.6
121 | SVIYHRCLFLI | 6.906 ± 0.048
122 | SVMNGVGPQWLVLTYLPVSR | -0.38 ± 1.5
123 | IRCVERGVWSCTFHIQGNCF | -0.84 ± 0.91
124 | TTWER | 0.496 ± 1.2
125 | RFFNHPMSFANMKLRSECTR | -0.832 ± 0.94

Row | Substance | amyloid nucleation score
126 | LNVYWRPCNN | 0.717 ± 0.9
127 | RLNVILGLTSTLNYSSVMPR | 3.67 ± 0.17
128 | YFIPEFSTCVMWRSNNTGKY | -0.211 ± 1.2
129 | QLVYCCLLILIYTYEC | 0.499 ± 0.42
130 | FLGLCS | -0.278 ± 0.4
131 | FMYAQMFPTAVQDYVK | inactive
132 | GRSLSFLLIGKYWQYTTQAR | inactive
133 | LIMSFVFSI | 4.57 ± 0.08
134 | NQYSFRGLS | inactive
135 | PYLTICKIDYFYYLGRDSFF | 4.47 ± 0.055
136 | DYNWSCFH | 1.28 ± 0.69
137 | KYIRISVDGIRFKEWCEFGS | 0.777 ± 0.14
138 | HRYRGRNLLILCRNDDWCDF | 1.26 ± 0.47
139 | MDGFERWGSYVTWSQLVMIR | -0.837 ± 0.98
140 | RVNLFSPYAWCIQIGSHHYG | 7.444 ± 0.047
141 | QTFTYKCFIHYFMRMWLVQI | -0.005 ± 0.75
142 | YQDVVDSDD | -0.762 ± 0.64
143 | DRMPRFLVHENVYTVPERVW | inactive
144 | PLAMNSFVIVIDGRLHVLGD | 4.72 ± 0.12
145 | SFNKDRKIYTRPELRFMMFL | -0.707 ± 1.7
146 | ICNFVSLFNWK | -0.025 ± 0.79
147 | MVFLGCSGLVCERCAGWLAR | 5.58 ± 0.11
148 | MTYDGCNSCKHLKSGKLRWC | 0.117 ± 0.29
149 | WHEMKY | 1.46 ± 0.13
150 | FVSTVYLY | 5.35 ± 0.064

Row | Substance | amyloid nucleation score
151 | DYKHNPKWKMCKCLLAIRNY | 1.53 ± 0.51
152 | KIPLNRIAVNASLRQRYCNP | 0.122 ± 0.27
153 | NTNYGLIQFGILLCRFC | 6.814 ± 0.052
154 | SLMCSPNGDESRQWNPRARQ | inactive
155 | HQYVMFESLTYICLPLRDRL | 4.98 ± 0.1
156 | CTPALLGLAIIQQGNTWLGI | 2.63 ± 0.079
157 | IWNVTPRGFDSAD | -0.345 ± 0.97
158 | PDSCIENLDMWYTFNGDNDT | -0.828 ± 0.3
159 | KTLRNNLLFIQSTPK | 0.1 ± 0.28
160 | GWNVTEIYFFMWVRITSGWM | 2.27 ± 0.19
161 | TLDADYPCNEQDTVWL | 1.01 ± 1.1
162 | LGVQFSGRLSVPVYFMWFTL | 0.814 ± 0.61
163 | IVLVR | -1.21 ± 0.69
164 | SLSCTTLCLEYYRYCVRTYG | 0.196 ± 0.7
165 | GGWSGRSLRDCVCMVHIKVG | 0.071 ± 0.75
166 | ARSCVLNLVPGFSPSFGT | -0.426 ± 0.52
167 | FNRENGRNFALVVCLLDRFG | 1.41 ± 0.17
168 | TFAVLRNSGFM | 0.529 ± 0.84
169 | SSFIPF | 0.1 ± 0.32
170 | SFKPSSFKFTIT | -0.605 ± 0.41
171 | FICECCISLMIARHRALKPA | -1 ± 0.67
